Measurements reported in patent publication US20170137467A1 (CHROMOTEK, published 2017).
Where a chain is given by its changes, count along the chain named. In names and notes the source's numbering stands.

B1: BC2 nanobody (VHH)
VHH: QVQLVESGGGLVQPGGSLTLSCTASGFTLDHYDIGWFRQAPGKEREGVSCINNSDDDTYYADSVKGRFTIFMDNAKDTVYLQMNSLKPEDTAIYYCAEARGCKRGRYEYDFWGQGTQVTVSS
notes: Alpaca VHH, 122 aa; also called BC2-Nb; BC2 nanotrap (BC2-Nb immobilized on agarose/Sepharose beads); not shown: C-terminal 6xHis-tag added by the pHEN6 vector
B2: BC2-Nb(R106E) (VHH)
VHH: B1 VHH with R106E
notes: Headlock mutant; immobilized on beads in the library pulldown

Tests used:
β-catenin peptide 25-39 = target: T1, β-catenin peptide 25-39 (human, UniProt P35222); assay: pepscan: 15-mer peptide on OVA-microspheres, biotinylated BC2-Nb, streptavidin-PE
T1 construct: synthetic 15-mer; additional N-terminal cysteine for coupling; also called Start 25 End 39
T1 peptide (looked up): WQQQSYLDSGIHSGA
Text: (§1) As negative controls, microspheres comprising Ovalbumin and the Myc-peptide ([…]) covalently coupled to OVA-microspheres were used. […] Evaluation of the PE-signals were done in a Flexmap 3D (Luminex).

β-catenin peptide 33-47 = target: T2, β-catenin peptide 33-47 (human, UniProt P35222); assay: as above
T2 construct: synthetic 15-mer; additional N-terminal cysteine for coupling; also called Start 33 End 47
T2 peptide (looked up): SGIHSGATTTAPSLS
Text: as §1

β-catenin peptide 41-55 = target: T3, β-catenin peptide 41-55 (human, UniProt P35222); assay: as above
T3 construct: synthetic 15-mer; additional N-terminal cysteine for coupling; also called Start 41 End 55
T3 peptide (looked up): TTAPSLSGKGNPEEE
Text: as §1

β-catenin peptide 53-67 = target: T4, β-catenin peptide 53-67 (human, UniProt P35222); assay: as above
T4 construct: synthetic 15-mer; additional N-terminal cysteine for coupling; also called Start 53 End 67
T4 peptide (looked up): EEEDVDTSQVLYEWE
Text: as §1

β-catenin peptide 57-71 = target: T5, β-catenin peptide 57-71 (human, UniProt P35222); assay: as above
T5 construct: synthetic 15-mer; additional N-terminal cysteine for coupling; also called Start 57 End 71
T5 peptide (looked up): VDTSQVLYEWEQGFS
Text: as §1

β-catenin peptide 73-87 = target: T6, β-catenin peptide 73-87 (human, UniProt P35222); assay: as above
T6 construct: synthetic 15-mer; additional N-terminal cysteine for coupling; also called Start 73 End 87
T6 peptide (looked up): SFTQEQVADIDGQYA
Text: as §1

[1] = target: T7, BC2T Q12H library peptide (human); assay: peptide library pulldown on immobilized Nb, LC-MS of supernatant; ratio vs GFP-Nb control (1 = not captured, 0 = captured)
T7 peptide: Ac-PDRKAAVSHWQH-NH2
Method in brief: (§2)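 Unbound peptide left in supernatant after 1 h pulldown in PBS/0.01% CHAPS measured by reversed-phase LC-MS (8–30% eluent B gradient, 20 min).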

BC2T S8F library peptide = target: T8, BC2T S8F library peptide (human); assay: as above
T8 construct: also called BC2TS8X: F
T8 peptide: Ac-PDRKAAVFHWQQ-NH2
Method in brief: as §2

BC2T H9M library peptide = target: T9, BC2T H9M library peptide (human); assay: as above
T9 peptide: Ac-PDRKAAVSMWQQ-NH2
Method in brief: as §2

BC2T H9P library peptide = target: T10, BC2T H9P library peptide (human); assay: as above
T10 peptide: Ac-PDRKAAVSPWQQ-NH2
Method in brief: as §2

[2] = target: T11, BC2T W10T library peptide (human); assay: as above
T11 construct: also called BC2TW10X: T
T11 peptide: Ac-PDRKAAVSHTQQ-NH2
Method in brief: as §2

[3] = target: T12, BC2T W10N library peptide (human); assay: as above
T12 construct: also called BC2TW10X: N
T12 peptide: Ac-PDRKAAVSHNQQ-NH2
Method in brief: as §2

[4] = target: T13, BC2T W10K library peptide (human); assay: as above
T13 construct: also called BC2TW10X: K
T13 peptide: Ac-PDRKAAVSHKQQ-NH2
Method in brief: as §2

[5] = target: T14, BC2T W10R library peptide (human); assay: as above
T14 construct: also called BC2TW10X: R
T14 peptide: Ac-PDRKAAVSHRQQ-NH2
Method in brief: as §2

[6] = target: T15, BC2T W10H library peptide (human); assay: as above
T15 construct: also called BC2TW10X: H
T15 peptide: Ac-PDRKAAVSHHQQ-NH2
Method in brief: as §2

[7] = target: T16, BC2T Q12F library peptide (human); assay: as above
T16 peptide: Ac-PDRKAAVSHWQF-NH2
Method in brief: as §2

[8] = target: T17, BC2T Q12Y library peptide (human); assay: as above
T17 peptide: Ac-PDRKAAVSHWQY-NH2
Method in brief: as §2

[9] = target: T18, BC2T Q12K library peptide (human); assay: as above
T18 peptide: Ac-PDRKAAVSHWQK-NH2
Method in brief: as §2

| Binder | binding result (β-catenin peptide 25-39) | binding result (β-catenin peptide 33-47) | binding result (β-catenin peptide 41-55) | binding result (β-catenin peptide 53-67) | binding result (β-catenin peptide 57-71) | binding result (β-catenin peptide 73-87) | ratio [1] | ratio (BC2T S8F library peptide) | ratio (BC2T H9M library peptide) | ratio (BC2T H9P library peptide) | ratio [2] | ratio [3] | ratio [4] | ratio [5] | ratio [6] | ratio [7] | ratio [8] | ratio [9] |
| --- | --- | --- | --- | --- | --- | --- | --- | --- | --- | --- | --- | --- | --- | --- | --- | --- | --- | --- |
| B1 | no binding (tested: 1 µg/ml BC2-Nb) | no binding (tested: 1 µg/ml BC2-Nb) | no binding (tested: 1 µg/ml BC2-Nb) | no binding (tested: 1 µg/ml BC2-Nb) | no binding (tested: 1 µg/ml BC2-Nb) | no binding (tested: 1 µg/ml BC2-Nb) |  |  |  |  |  |  |  |  |  |  |  |  |
| B2 |  |  |  |  |  |  | 0.1 | 0.9 | 0.2 | 0.9 | 1.1 | 1.2 | 1.3 | 1.3 | 1.2 | 0.3 | 0.2 | 0 |
